Results published in patent CN114409779A.

Biological target: 重组人NogoA蛋白 (recombinant human NogoA protein) (human) (UniProt Q9NQC3)
Test: BLI (Gator label-free analyser), antibody captured on Protein A probe, NogoA at 10, 5, 2.5 and 0 ug/mL

Chain of UniProt Q9NQC3 (Q9NQC3 1055-1120 limits assumed): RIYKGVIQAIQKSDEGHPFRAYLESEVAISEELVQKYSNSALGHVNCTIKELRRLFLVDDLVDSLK

Kd: 8.2 pM
B1: NogoAD1-1 (antibody, part only; not given: Light chain variable domain, V domains shown, part only)
VH: EVLLVESQQTPVKPGGSLKASCAGSQSVFLTAAYSWVRPTPEKLLEWVATISYGSPNTYYPDSVKGRYNEKFKGKATLTVETSSSTAYMQLSSLTSEDTAVYFCARRSYGEDSWFSYWGQGTLVTVSS
